In article PMC5146279, “Atomic structure of the innexin-6 gap junction channel determined by cryo-EM” (Nature Communications, 2016):

Legend:
[1] = biological target: the molecule itself; assay: cryo-EM structure; INX-6 gap junction channel by single-particle analysis, 35,608 particles, D8 symmetry, 3.6 Å; sample after GraDeR, 10 mM Tris pH 7.5, 500 mM NaCl
[2] = biological target: the molecule itself; assay: cryo-EM structure; INX-6 hemichannel (docked class) by single-particle analysis, 74,398 particles, C8 symmetry, 3.3 Å; sample after GraDeR, 10 mM Tris pH 7.5, 500 mM NaCl

B1: Caenorhabditis elegans innexin-6 (INX-6) wild type (natural protein, UniProt Q9U3N4 1-389, looked up)
chain: MASQVGAINSVNALISRVFVQPKGDLADRLNSRVTVVILAVSSALLLSSHFIGDPITCWTPAQFNAQWVNFVNQYCFVHGTYFVPLDQQLAFEEEERTKVSIQYYQWVPYVFALQAFLFYIPRFIWKAMIAYSGYDLAAAVKYVDRFWSENRDKDDKFKTRLAAFEGRPSVYIWDGIRLARKKRSRNMALFYTLSTVWQAVNAWIQFYILTQLLDSSIYTLWGPSILGDLLQGNDWQTTGHFPRIVHCDFNRRRPASVQLDTVLCVLTLNIYYEKLFIFLWFWLVFVAVVSTVNCFKWIYYLCNKTKAQKTIKNYLSTAPIKSTISDDQFFSALGEDGLFIMDQMALNLGDIPASYLTISMRNICQDFIESEDYIDEERTPFVKSIKHT
notes: Innexin-6 (INX-6), C. elegans, wild type; Eight copies form a hemichannel and 16 copies the docked gap junction channel; also called INX-6 WT; INX-6 hemichannel; source: Sf9 cells infected with recombinant virus, purified (Ni-NTA, tag digested, gel filtration, GraDeR); not shown: GFP, C-terminal, cleaved; His8, C-terminal, cleaved; copies: 16
- stoichiometry N [1]: 16
- stoichiometry N [2]: 8
